Target: Recombinant human TLR4/myeloid differentiation factor 2 (MD-2) complex (human) (UniProt O00206)
Sequence (O00206 24-631, chain 1 of 2): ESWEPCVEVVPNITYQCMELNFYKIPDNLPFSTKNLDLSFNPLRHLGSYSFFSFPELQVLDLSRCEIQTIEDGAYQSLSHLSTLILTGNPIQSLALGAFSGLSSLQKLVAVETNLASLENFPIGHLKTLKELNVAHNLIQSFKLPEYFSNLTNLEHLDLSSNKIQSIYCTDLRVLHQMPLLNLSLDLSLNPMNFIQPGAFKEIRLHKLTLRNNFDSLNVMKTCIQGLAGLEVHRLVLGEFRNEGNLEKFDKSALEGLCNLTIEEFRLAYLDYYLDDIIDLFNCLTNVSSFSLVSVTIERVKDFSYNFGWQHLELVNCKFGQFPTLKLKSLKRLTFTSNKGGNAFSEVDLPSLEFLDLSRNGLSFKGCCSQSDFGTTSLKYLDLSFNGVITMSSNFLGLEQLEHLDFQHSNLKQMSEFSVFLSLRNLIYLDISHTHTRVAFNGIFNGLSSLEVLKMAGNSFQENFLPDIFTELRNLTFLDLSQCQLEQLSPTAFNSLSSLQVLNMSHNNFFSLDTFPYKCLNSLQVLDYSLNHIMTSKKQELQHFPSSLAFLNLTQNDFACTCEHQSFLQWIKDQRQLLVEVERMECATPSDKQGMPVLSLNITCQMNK
Sequence (Q9Y6Y9 19-160, chain 2 of 2, further chain): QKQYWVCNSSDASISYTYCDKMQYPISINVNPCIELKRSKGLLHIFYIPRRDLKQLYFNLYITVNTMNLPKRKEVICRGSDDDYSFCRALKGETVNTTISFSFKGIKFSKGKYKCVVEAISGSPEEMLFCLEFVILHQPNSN

EC50 of TLR4 activation in HEK-Blue hTLR4 reporter cells (SEAP production), S100A9 0.5-50 nM, 24 h: 0.7 nM
B1: Recombinant human calcium binding protein S100A9 (natural protein)
chain: MTCKMSQLERNIETIINTFHQYSVKLGHPDTLNQGEFKELVRKDLQNFLKKENKNEKVIEHIMEDLDTNADKQLSFEEFIMLMARLTWASHEKMHEGDEGPGHHHKPGLGEGTP

From PMC9599826, “Selecting Multitarget Peptides for Alzheimer’s Disease” (Biomolecules, 2022)
